# The supplement of paper PMC12042874
# ± gives the uncertainty stated by the source.
# Assay: amyloid nucleation score (Sup35N fusion, yeast selection) (log enrichment); library NNK1; higher = more nucleation; inactive = no reads after selection
# Outline: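 Sup35N was fused to peptides of 20 random codons and expressed in psi-negative yeast, which were induced with 100 μM copper sulfate for 24 hours and then grown on medium lacking adenine and uracil for 7 days at 30°C. Plasmid inserts from input and output were sequenced on Illumina. The nucleation score is the DiMSum log enrichment of output over input reads, centred on the mode score of non-aggregating sequences. Sequences with under 100 input reads were left out, and random libraries had three technical output replicates.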
row,Substance,amyloid nucleation score
1,RSTGTGTICV,inactive
2,RSVPLFDHPWNRVTLRFSIL,0.714 ± 0.47
3,RSWDRYMFGRNRCVDWGR,0.107 ± 0.9
4,RSYSTCFPLIVLSK,0.303 ± 0.28
5,RTCDIRSLHPTTEGSETCGR,0.306 ± 0.56
6,RTGPLSVASGAVPYGYQPWL,-0.203 ± 0.62
7,RTINYTAMWCYS,0.721 ± 0.41
8,RTLGDSNGNNVGLQVVPKCL,-0.108 ± 0.31
9,RTSPN,-0.141 ± 0.37
10,RTVTWEMQKVDWSLWSCRWL,2.56 ± 0.17
11,RVILFFRFIAILEDCATVSF,-0.544 ± 0.25
12,RVLCCRYN,0.19 ± 0.51
13,RVLLSSVSDM,-0.766 ± 2.4
14,RVLVDPRSSFVYSTRFDDD,0.2 ± 0.45
15,RVNTETMITGESGMSIDELM,1.03 ± 0.76
16,RVRILITYM,1.18 ± 0.17
17,RVRLVWSSCQGDEGFYGLCP,1.36 ± 0.18
18,RVRVSLTWQLISLVVMSEYR,0.809 ± 0.64
19,RVTVTLFYMFNNRGEGKSQA,3.44 ± 0.12
20,RVVLCDI,0.261 ± 0.75
21,RVVPGGRLRYVNMVF,1.26 ± 0.67
22,RVVSCMTSRMLWSMRDPIYY,0.217 ± 0.41
23,RVVWVVFGWGLIHLGGLLCG,0.146 ± 0.81
24,RVWCKWH,0.027 ± 1.4
25,RVWMGFDWIEDESRLDSTM,0.21 ± 0.82
26,RWAVLACFCMGD,0.434 ± 0.81

row,Substance,amyloid nucleation score
1,RWFYSCDVVAFKGH,0.584 ± 0.84
2,RWIPQNMHQLWKASDGNERM,-0.697 ± 0.41
3,RWKRVIMSQHQVVYVNSWMV,-0.484 ± 1.9
4,RWLDYYADNARHVSQTLRRR,-0.575 ± 0.64
5,RWLGRRMRAGFAYGAFRTGY,0.054 ± 0.8
6,RWVPYHFV,2.77 ± 0.13
7,RWYSHFSAMQWGATLCFWGL,2.64 ± 0.11
8,RYAWVTMVVYACLQLGSASR,0.678 ± 0.21
9,RYGGRCNTR,0.016 ± 1.7
10,RYIPARGVNGGYSVVVRHLG,-0.436 ± 0.38
11,RYKNSIDSESVINRLLWDAT,0.431 ± 0.8
12,RYKWMYFCFHLIMVGNRMSA,inactive
13,RYMLHDLIFPVSVVMRVSYE,0.92 ± 0.22
14,RYMWYLVCS,0.026 ± 0.7
15,RYNAILAWCSLRKTGVYFLV,1.09 ± 1
16,RYNTPNGVYICLNA,-1.03 ± 0.39
17,RYPTGAKKLQMLNDVLMLYR,-0.479 ± 0.3
18,RYRSMHHFRVHDKHPMLGYA,1.34 ± 0.84
19,RYRSVVIPRVHAIEVIYAAC,-0.378 ± 0.97
20,RYTLFCLSVNYWWTFWLDSV,1.61 ± 0.58
21,RYVCTESESVDLSQMAVIMS,1.13 ± 0.4
22,RYVPVATKSSTGMSYWDIMV,0.194 ± 0.38
23,RYWSRQRLTDVYVFRLDMSR,-2.07 ± 2.4
24,SAAGT,0.49 ± 0.66
25,SAGHLNYNEWLNGCGDRGKC,-0.367 ± 0.53
26,SARYL,0.496 ± 0.7

row,Substance,amyloid nucleation score
1,SARYLMEFWKVHIKAYIMSF,0.099 ± 0.79
2,SAVGAIDANIYKSDGYSWG,-0.879 ± 0.58
3,SCAASGNLYVSSAGGVRGKR,-0.734 ± 0.46
4,SCACRYSDLVWVINSLRTVA,0.46 ± 0.83
5,SCHRPVPSRASSEKILGIAC,0.157 ± 1.4
6,SCILFY,1.75 ± 0.14
7,SCKPGPIVSLDFVFVVYPWE,0.002 ± 0.9
8,SCLMY,inactive
9,SCPTMYSYVFWVRFQSGTAS,1.72 ± 0.13
10,SCRSGRRRPLPTGGPILATN,-0.015 ± 0.64
11,SCTYSIFCDNISRTLGH,-0.287 ± 0.26
12,SCWNSCNKMSF,2.87 ± 0.24
13,SDALTKMDLITLRDKI,inactive
14,SDELVQSTASGLFYASMGFK,1.75 ± 0.76
15,SDFNLDSSGMKRVKSRV,0.817 ± 0.69
16,SDLWLLECWTLDICGWLKAT,0.992 ± 0.58
17,SDMFSLNYSFDERTFWKQTS,inactive
18,SDNYVKAYVRVRRVMTKGGS,-0.579 ± 0.58
19,SDSGPTALNVYFPGTCQGNS,inactive
20,SDVSYLVNSSNVGLWHL,0.467 ± 0.4
21,SDWGGVMVDRGSGW,1.36 ± 0.47
22,SEIPVNGLARLCRGRYRNRQ,4.66 ± 0.11
23,SEKGCYYIGSLTGR,0.184 ± 1.2
24,SEMSLSRDSCLLSIV,0.141 ± 0.18
25,SFARVWVWSACA,-0.559 ± 0.49
26,SFCVRQSTVFLMMSWECFRY,1.19 ± 0.8

row,Substance,amyloid nucleation score
1,SFEFGSSGRICVCIMFPVER,1.08 ± 0.56
2,SFESVVIVLKLNALFPCVST,-0.048 ± 0.28
3,SFFSSVVDF,0.2 ± 0.63
4,SFGVSNTSYWTAEKVVGYAT,0.501 ± 0.7
5,SFKRYRRYRSKRVRRIGRGR,0.677 ± 0.52
6,SFLLYGLFAYVSAYIRDICA,-0.166 ± 0.38
7,SFLSVFAMFYVQLPCHNMVS,-0.15 ± 0.64
8,SFNVKVAHGLIRFSPDICYQ,4.47 ± 0.13
9,SFRAKDG,inactive
10,SFREHGRSSNRP,0.423 ± 1.4
11,SFSLMGRFRSFMYACIVAAC,-0.936 ± 0.57
12,SFYCSHEVYLCNALYIDRVR,3.67 ± 0.098
13,SFYLIPPSCGYISHFGISTG,inactive
14,SFYYWHPIALVSMVYK,5.89 ± 0.073
15,SGAYATVPVYQEWLSQIKLL,0.327 ± 1
16,SGCGTGKVDVNWGLENAKAG,0.408 ± 0.59
17,SGDIKSFWMERCFCLVTHGK,-0.115 ± 0.57
18,SGDSSYIMLLVVAPMYCQLP,-0.148 ± 0.83
19,SGGSEELLRVVMVSSMKGPW,-0.254 ± 0.81
20,SGHNSLGFISGIAINIFYRE,7.537 ± 0.069
21,SGHRFCAVRSRATGERFYGW,inactive
22,SGLIKVGISLRLHYGLYLRY,0.684 ± 0.88
23,SGPFSTYMTRFFLDFGSVDC,-1.71 ± 2.4
24,SGPRRQIDAIMFRGL,-0.086 ± 1.2
25,SGQTYGNFFGEAFWYECA,0.19 ± 1.4
26,SGTTRWCRGGV,0.127 ± 0.74

row,Substance,amyloid nucleation score
1,SGVVTCVVFL,5.38 ± 0.066
2,SGWIKIFG,-0.293 ± 0.66
3,SGYLRKRYTRRDC,inactive
4,SGYSLASVVILLKAVYCLGW,0.627 ± 0.72
5,SGYWAPINLTGVMDS,0.053 ± 1.1
6,SHADVR,-0.027 ± 0.83
7,SHIFRWNTCRMEIRWYNQYY,1.14 ± 0.71
8,SHVGSYSWVCSRLARIGCER,-0.703 ± 0.46
9,SHYNNNHSAGWLLQLFTMAC,0.05 ± 0.88
10,SIFADGLVVGLGPSLYSVFF,0.175 ± 0.54
11,SIGLC,1.31 ± 0.76
12,SILMWLNLARSLGTIYLLFV,0.046 ± 0.76
13,SILVRVSVR,0.444 ± 1.2
14,SIMNISVAYCGSM,3.67 ± 0.14
15,SIQLGSFWSGCEICCDYPPA,-0.805 ± 0.67
16,SIRLPVIKRSRL,-0.109 ± 0.66
17,SIRLREL,1.61 ± 0.76
18,SIRWVIHDRVSRVYDVLRCG,0.944 ± 0.54
19,SIYYKARSEWSMASAIDGYV,0.85 ± 0.72
20,SKDKGSTLGTSNLGRDGSWK,0.5 ± 0.45
21,SKDYVDL,inactive
22,SKEESPMTFVWILGGHSELS,-0.448 ± 0.32
23,SKICLMSIYHLQLDPFIGMP,3.03 ± 0.17
